# Results taken from publication PMC6640674.
# Biological target: BPSL1626 (Burkholderia pseudomallei strain K96423) (UniProt Q63UH6)
# Assay: crystal structure
substance,measurement,value
BPSL1626 (from UniProt Q63UH6 26-176) (natural protein),stoichiometry N,2
